Experimental data: patent US20220089695A1

Assays:
[1] = molecular target: SARS-CoV-2 Spike (S) protein, recombinant, construct not stated at the place (SARS-CoV-2) (UniProt P0DTC2)
[2] = molecular target: Asialoglycoprotein Receptor 1 expressed on cells (human) (UniProt P07306)
[3] = molecular target: Tweety Family Member 2 expressed on cells (human) (UniProt Q9BSA4)
[4] = molecular target: C-type lectin domain family 10 member A expressed on cells (human) (UniProt Q8IUN9)
[5] = molecular target: Dendritic cell-specific intercellular adhesion molecule-3-grabbing nonintegrin expressed on cells (human) (UniProt Q9NNX6)
Sequence of Dendritic cell-specific intercellular adhesion molecule-3-grabbing nonintegrin expressed on cells (human) (Q9NNX6 whole entry): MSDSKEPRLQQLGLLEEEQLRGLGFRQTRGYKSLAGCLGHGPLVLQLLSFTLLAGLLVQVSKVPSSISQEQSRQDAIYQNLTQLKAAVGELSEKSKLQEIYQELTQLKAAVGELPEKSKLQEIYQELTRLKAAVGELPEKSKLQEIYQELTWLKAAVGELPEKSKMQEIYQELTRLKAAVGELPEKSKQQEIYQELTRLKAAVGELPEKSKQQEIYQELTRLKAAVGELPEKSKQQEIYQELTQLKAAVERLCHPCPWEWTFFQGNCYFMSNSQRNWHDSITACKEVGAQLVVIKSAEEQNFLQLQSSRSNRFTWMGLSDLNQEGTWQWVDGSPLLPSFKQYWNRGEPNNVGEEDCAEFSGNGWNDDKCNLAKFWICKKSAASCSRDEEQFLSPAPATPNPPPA

[6] = molecular target: Liver/lymph node-specific intercellular adhesion molecule-3-grabbing integrin expressed on cells (human) (UniProt Q9H2X3)
Sequence of Liver/lymph node-specific intercellular adhesion molecule-3-grabbing integrin expressed on cells (human) (Q9H2X3 whole entry): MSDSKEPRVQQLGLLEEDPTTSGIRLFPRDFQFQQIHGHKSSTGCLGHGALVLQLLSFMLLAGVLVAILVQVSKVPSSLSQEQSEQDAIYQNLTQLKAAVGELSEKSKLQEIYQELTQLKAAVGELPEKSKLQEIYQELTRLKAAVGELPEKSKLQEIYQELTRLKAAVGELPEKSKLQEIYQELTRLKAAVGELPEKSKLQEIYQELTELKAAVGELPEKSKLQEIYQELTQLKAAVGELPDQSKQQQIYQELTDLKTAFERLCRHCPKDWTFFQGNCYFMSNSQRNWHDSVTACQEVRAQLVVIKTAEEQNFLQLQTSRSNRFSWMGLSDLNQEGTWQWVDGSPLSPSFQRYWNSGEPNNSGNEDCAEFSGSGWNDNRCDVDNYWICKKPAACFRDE

[7] = molecular target: Liver and lymph node sinusoidal endothelial cell C-type lectin expressed on cells (human) (UniProt Q6UXB4)
Sequence of Liver and lymph node sinusoidal endothelial cell C-type lectin expressed on cells (human) (Q6UXB4 whole entry): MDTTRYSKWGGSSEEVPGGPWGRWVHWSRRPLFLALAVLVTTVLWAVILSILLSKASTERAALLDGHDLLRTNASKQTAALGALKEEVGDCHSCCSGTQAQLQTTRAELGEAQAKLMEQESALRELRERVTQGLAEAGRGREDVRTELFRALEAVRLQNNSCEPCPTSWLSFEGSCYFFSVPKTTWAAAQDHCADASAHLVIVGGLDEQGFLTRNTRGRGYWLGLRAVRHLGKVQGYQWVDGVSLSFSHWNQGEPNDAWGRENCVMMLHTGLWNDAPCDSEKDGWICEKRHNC

Sequence of C-type lectin domain family 10 member A expressed on cells (human) (Q8IUN9 whole entry, the tested form may be a part): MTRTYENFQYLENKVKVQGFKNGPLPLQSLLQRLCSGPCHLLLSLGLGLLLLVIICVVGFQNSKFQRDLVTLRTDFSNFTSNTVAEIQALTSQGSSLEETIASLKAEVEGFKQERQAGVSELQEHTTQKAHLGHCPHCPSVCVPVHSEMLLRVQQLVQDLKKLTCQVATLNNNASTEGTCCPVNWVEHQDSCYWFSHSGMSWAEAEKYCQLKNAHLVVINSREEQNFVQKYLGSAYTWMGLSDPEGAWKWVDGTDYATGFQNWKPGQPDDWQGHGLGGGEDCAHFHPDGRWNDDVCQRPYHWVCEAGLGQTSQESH
Sequence of Tweety Family Member 2 expressed on cells (human) (Q9BSA4 whole entry, the tested form may be a part): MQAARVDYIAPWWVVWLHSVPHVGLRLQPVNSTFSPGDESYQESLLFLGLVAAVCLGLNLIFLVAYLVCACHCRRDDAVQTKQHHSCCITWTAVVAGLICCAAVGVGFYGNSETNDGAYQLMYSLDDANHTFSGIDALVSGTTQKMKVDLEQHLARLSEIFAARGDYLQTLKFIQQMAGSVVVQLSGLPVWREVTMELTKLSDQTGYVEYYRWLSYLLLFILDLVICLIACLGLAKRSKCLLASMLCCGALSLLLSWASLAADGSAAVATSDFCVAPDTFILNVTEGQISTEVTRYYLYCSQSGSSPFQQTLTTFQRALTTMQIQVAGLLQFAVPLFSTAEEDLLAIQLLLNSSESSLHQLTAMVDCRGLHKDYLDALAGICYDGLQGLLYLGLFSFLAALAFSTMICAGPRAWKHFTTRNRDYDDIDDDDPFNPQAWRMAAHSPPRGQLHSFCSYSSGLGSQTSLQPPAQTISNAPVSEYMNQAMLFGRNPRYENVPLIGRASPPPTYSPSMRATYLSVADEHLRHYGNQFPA
Sequence of Asialoglycoprotein Receptor 1 expressed on cells (human) (P07306 whole entry): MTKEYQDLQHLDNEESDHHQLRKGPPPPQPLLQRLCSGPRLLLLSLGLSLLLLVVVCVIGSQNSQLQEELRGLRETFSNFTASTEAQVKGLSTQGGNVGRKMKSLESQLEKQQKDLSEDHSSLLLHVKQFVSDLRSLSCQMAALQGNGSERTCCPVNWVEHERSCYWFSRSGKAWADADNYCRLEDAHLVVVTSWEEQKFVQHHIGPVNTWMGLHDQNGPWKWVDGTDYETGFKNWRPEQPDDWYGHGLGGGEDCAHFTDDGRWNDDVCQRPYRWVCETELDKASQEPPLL

ACE2-Fc + L-SIGN-Fc + ASGR1-Fc
blocking of S protein binding (heat-map cell) [1]: 33.7%

Fc Control
blocking of S protein binding (heat-map cell) [1]: 0%

SARS-CoV-2 S protein displayed on lentiviral (HIV-GFP) pseudovirus (from UniProt P0DTC2 14-1273)
cells in the Anti-SARS-CoV-2 S protein (APC) gate [2]: 47.6% | cells in the Anti-SARS-CoV-2 S protein (APC) gate [3]: 1.61% | cells in the Anti-SARS-CoV-2 S protein (APC) gate [4]: 3.2%

SARS-CoV-2 S protein displayed on lentiviral (HIV-GFP) pseudovirus (from UniProt P0DTC2 14-1273) (other; other documents disagree on this pair)
cells in the Anti-SARS-CoV-2 S protein (APC) gate [5]: 20.8% | cells in the Anti-SARS-CoV-2 S protein (APC) gate [6]: 31.7% | cells in the Anti-SARS-CoV-2 S protein (APC) gate [7]: 1.7%
